From patent publication US20190330344A1 (F STAR THERAPEUTICS, published 2019)
Each block holds one molecule with its values, some of them ahead of it.

Tests used:
[1] = molecular target: mouse LAG-3 expressed on cells (HEK cells expressing mLAG-3 or DO11.10 mLAG-3) (mouse) (UniProt Q61790); assay: cell-based or functional assay
[2] = molecular target: human FcγRI (human) (UniProt P12314); assay: SPR (Biacore T200), FcγR immobilised, 200 µg/ml analyte
[3] = molecular target: human FcγRIII (human) (UniProt P08637); assay: as above
human FcγRIII (human), sequence (P08637 17-208 limits assumed): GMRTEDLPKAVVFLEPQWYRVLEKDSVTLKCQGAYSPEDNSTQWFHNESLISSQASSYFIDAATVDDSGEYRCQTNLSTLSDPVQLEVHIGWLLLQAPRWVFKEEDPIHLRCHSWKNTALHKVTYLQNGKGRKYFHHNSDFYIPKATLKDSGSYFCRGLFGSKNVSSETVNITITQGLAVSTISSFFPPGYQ

[4] = molecular target: human FcγRIIa (human) (UniProt P12318); assay: SPR (Biacore T200), FcγR immobilised, 500 µg/ml analyte
human FcγRIIa (human), sequence (P12318 36-218 limits assumed): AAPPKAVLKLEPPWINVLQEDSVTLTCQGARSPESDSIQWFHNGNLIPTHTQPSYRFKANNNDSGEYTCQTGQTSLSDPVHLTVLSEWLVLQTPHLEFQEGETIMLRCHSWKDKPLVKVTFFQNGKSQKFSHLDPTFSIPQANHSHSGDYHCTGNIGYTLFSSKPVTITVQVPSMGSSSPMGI

[5] = molecular target: human FcγRIIb (human) (UniProt P31994); assay: as above
human FcγRIIb (human), sequence (P31994 46-217 limits assumed): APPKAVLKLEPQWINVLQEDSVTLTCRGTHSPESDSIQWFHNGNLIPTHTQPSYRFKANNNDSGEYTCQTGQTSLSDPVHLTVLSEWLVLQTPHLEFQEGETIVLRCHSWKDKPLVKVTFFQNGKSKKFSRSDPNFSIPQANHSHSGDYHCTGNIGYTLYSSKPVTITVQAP

[6] = molecular target: T1, human LAG-3 expressed on cells (DO11.10 or HEK 293 cells over-expressing human LAG-3) (human, UniProt P18627 23-525); assay: cell-based or functional assay
T1 sequence: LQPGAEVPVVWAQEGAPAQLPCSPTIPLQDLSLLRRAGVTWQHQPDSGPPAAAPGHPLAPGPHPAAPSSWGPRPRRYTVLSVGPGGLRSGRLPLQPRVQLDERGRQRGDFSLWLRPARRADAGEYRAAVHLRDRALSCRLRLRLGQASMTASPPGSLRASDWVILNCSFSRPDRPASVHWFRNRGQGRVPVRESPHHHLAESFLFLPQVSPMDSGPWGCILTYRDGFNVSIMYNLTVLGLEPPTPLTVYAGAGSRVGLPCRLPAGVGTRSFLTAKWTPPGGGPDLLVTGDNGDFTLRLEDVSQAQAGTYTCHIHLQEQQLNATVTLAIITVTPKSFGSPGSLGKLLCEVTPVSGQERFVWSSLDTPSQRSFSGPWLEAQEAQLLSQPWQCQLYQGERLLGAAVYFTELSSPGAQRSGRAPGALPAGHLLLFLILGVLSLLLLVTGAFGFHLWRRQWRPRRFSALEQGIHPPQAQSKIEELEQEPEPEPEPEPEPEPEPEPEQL

[7] = molecular target: T2, mouse LAG-3 expressed on cells (HEK cells expressing mLAG-3 or DO11.10 mLAG-3) (mouse, UniProt Q61790 24-521); assay: cell-based or functional assay
T2 sequence: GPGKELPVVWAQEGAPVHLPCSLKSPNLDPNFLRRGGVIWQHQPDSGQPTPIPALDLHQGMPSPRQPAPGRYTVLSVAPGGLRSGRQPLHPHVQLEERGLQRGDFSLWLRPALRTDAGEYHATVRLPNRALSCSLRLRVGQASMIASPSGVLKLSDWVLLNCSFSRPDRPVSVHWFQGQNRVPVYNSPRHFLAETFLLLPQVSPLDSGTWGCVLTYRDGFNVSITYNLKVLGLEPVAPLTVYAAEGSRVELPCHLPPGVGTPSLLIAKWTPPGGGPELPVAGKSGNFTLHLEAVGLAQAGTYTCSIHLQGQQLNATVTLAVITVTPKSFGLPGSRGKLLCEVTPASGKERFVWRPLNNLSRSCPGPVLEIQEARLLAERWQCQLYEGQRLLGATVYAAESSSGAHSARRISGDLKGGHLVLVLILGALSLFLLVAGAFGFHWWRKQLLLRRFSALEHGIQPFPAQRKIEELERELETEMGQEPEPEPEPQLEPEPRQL

human FcγRI (human), sequence (P12314 16-288 limits assumed): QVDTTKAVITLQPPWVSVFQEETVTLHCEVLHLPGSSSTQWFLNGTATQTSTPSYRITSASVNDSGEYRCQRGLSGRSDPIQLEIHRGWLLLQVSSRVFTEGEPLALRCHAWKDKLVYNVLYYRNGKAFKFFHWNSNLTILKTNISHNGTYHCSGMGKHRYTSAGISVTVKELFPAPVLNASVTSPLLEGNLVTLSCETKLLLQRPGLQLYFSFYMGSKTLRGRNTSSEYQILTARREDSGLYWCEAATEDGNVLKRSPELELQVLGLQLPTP

EC50 of mIL-2 release, DO11.10 T cell activation assay (mouse LAG-3) [1]: 5.1 nM
Maximal IL-2 release [1]: 48 pg/mL
Molecule: benchmark anti-mouse LAG-3 mAb C9B7W (2B Scientific, BE0174-50MG) (antibody)

Binding response at end of association (RU) [2]: 2 RU
Binding response at end of association (RU) [3]: 8 RU
Binding response at end of association (RU) [4]: -12.7 RU
Binding response at end of association (RU) [5]: -9.6 RU
Molecule: mock mAb LALA (control LALA IgG1 mAb) (antibody)

Binding response at end of association (RU) [2]: 26 RU
Binding response at end of association (RU) [3]: 44 RU
Binding response at end of association (RU) [4]: 13 RU
Binding response at end of association (RU) [5]: 17.7 RU
Molecule: mock mAb IgG1 (wild type IgG1 isotype mAb, positive control without LALA) (antibody)

EC50 of mIL-2 release, DO11.10 T cell activation assay (human LAG-3) [6]: 0.8 nM
B1: anti-human LAG-3 Fcab FS18-7-95 with truncated hinge and LALA mutation (designed binder)
chain: TCPPCPAPEAAGGPSVFLFPPKPKDTLMISRTPEVTCVVVDVSHEDPEVKFNWYVDGVEVHNAKTKPREEQYNSTYRVVSVLTVLHQDWLNGKEYKCKVSNKALPAPIEKTISKAKGQPREPQVYTLPPSWDEPWGEDVSLTCLVKGFYPSDIAVEWESNGYQEDNYKTTPPVLDSDGSFFLYSKLTVPYDRWVWPDEFSCSVMHEALHNHYTQKSLSLSPG

EC50 of mIL-2 release, DO11.10 T cell activation assay (human LAG-3) [6]: 1.7 nM
B2: anti-human LAG-3 Fcab FS18-7-32 with truncated hinge and LALA mutation (designed binder)
chain: TCPPCPAPEAAGGPSVFLFPPKPKDTLMISRTPEVTCVVVDVSHEDPEVKFNWYVDGVEVHNAKTKPREEQYNSTYRVVSVLTVLHQDWLNGKEYKCKVSNKALPAPIEKTISKAKGQPREPQVYTLPPSWDEPWGEDVSLTCLVKGFYPSEIAVEWESNGQPENNYKTTPPVLDSDGSFFLYSKLTVPYDRWVWPDEFSCSVMHEALHNHYTQKSLSLSPG

EC50 of mIL-2 release, DO11.10 T cell activation assay (human LAG-3) [6]: 1.3 nM
B3: anti-human LAG-3 Fcab FS18-7-58 with truncated hinge and LALA mutation (designed binder)
chain: TCPPCPAPEAAGGPSVFLFPPKPKDTLMISRTPEVTCVVVDVSHEDPEVKFNWYVDGVEVHNAKTKPREEQYNSTYRVVSVLTVLHQDWLNGKEYKCKVSNKALPAPIEKTISKAKGQPREPQVYTLPPSWDEPWGEDVSLTCLVKGFYPSDIAVEWESNGYPEIEFKTTPPVLDSDGSFFLYSKLTVPYDRWVWPDEFSCSVMHEALHNHYTQKSLSLSPG

EC50 of mIL-2 release, DO11.10 T cell activation assay (human LAG-3) [6]: 1 nM
B4: anti-human LAG-3 Fcab FS18-7-78 with truncated hinge and LALA mutation (designed binder)
chain: TCPPCPAPEAAGGPSVFLFPPKPKDTLMISRTPEVTCVVVDVSHEDPEVKFNWYVDGVEVHNAKTKPREEQYNSTYRVVSVLTVLHQDWLNGKEYKCKVSNKALPAPIEKTISKAKGQPREPQVYTLPPSWDEPWGEDVSLTCLVKGFYPSDIAVEWESNGYKEENYKTTPPVLDSDGSFFLYSKLTVPYDRWVWPDEFSCSVMHEALHNHYTQKSLSLSPG

EC50 of mIL-2 release, DO11.10 T cell activation assay (human LAG-3) [6]: 1.1 nM
B5: anti-human LAG-3 Fcab FS18-7-33 with truncated hinge and LALA mutation (designed binder)
chain: TCPPCPAPEAAGGPSVFLFPPKPKDTLMISRTPEVTCVVVDVSHEDPEVKFNWYVDGVEVHNAKTKPREEQYNSTYRVVSVLTVLHQDWLNGKEYKCKVSNKALPAPIEKTISKAKGQPREPQVYTLPPSWDEPWGEDVSLTCLVKGFYPSDIAVEWESNGQPEDNYKTTPPVLDSDGSFFLYSKLTVPYDRWVWPDEFSCSVMHEALHNHYTQKSLSLSPG

EC50 of mIL-2 release, DO11.10 T cell activation assay (human LAG-3) [6]: 1.2 nM
B6: anti-human LAG-3 Fcab FS18-7-9 with truncated hinge and LALA mutation (designed binder)
chain: TCPPCPAPEAAGGPSVFLFPPKPKDTLMISRTPEVTCVVVDVSHEDPEVKFNWYVDGVEVHNAKTKPREEQYNSTYRVVSVLTVLHQDWLNGKEYKCKVSNKALPAPIEKTISKAKGQPREPQVYTLPPSWDEPWGEDVSLTCLVKGFYPSDIAVEWESNGQPENNYKTTPPVLDSDGSFFLYSKLTVPYDRWVWPDEFSCSVMHEALHNHYTQKSLSLSPG

EC50 of mIL-2 release, DO11.10 T cell activation assay (human LAG-3) [6]: 1.3 nM
B7: anti-human LAG-3 Fcab FS18-7-88 with truncated hinge and LALA mutation (designed binder)
chain: TCPPCPAPEAAGGPSVFLFPPKPKDTLMISRTPEVTCVVVDVSHEDPEVKFNWYVDGVEVHNAKTKPREEQYNSTYRVVSVLTVLHQDWLNGKEYKCKVSNKALPAPIEKTISKAKGQPREPQVYTLPPSWDEPWGEDVSLTCLVKGFYPSDIAVEWESNGVPELNVKTTPPVLDSDGSFFLYSKLTVPYDRWVWPDEFSCSVMHEALHNHYTQKSLSLSPG

EC50 of mIL-2 release, DO11.10 T cell activation assay (human LAG-3) [6]: 1.1 nM
B8: anti-human LAG-3 Fcab FS18-7-62 with truncated hinge and LALA mutation (designed binder)
chain: TCPPCPAPEAAGGPSVFLFPPKPKDTLMISRTPEVTCVVVDVSHEDPEVKFNWYVDGVEVHNAKTKPREEQYNSTYRVVSVLTVLHQDWLNGKEYKCKVSNKALPAPIEKTISKAKGQPREPQVYTLPPSWDEPWGEDVSLTCLVKGFYPSDIAVEWESNGIPEWNYKTTPPVLDSDGSFFLYSKLTVPYDRWVWPDEFSCSVMHEALHNHYTQKSLSLSPG

EC50 of mIL-2 release, DO11.10 T cell activation assay (mouse LAG-3) [7]: 1.9 nM
B9: surrogate anti-mouse LAG-3 Fcab FS18-7-108-29 with truncated hinge, comprising LALA mutation (designed binder)
chain: TCPPCPAPEAAGGPSVFLFPPKPKDTLMISRTPEVTCVVVDVSHEDPEVKFNWYVDGVEVHNAKTKPREEQYNSTYRVVSVLTVLHQDWLNGKEYKCKVSNKALPAPIEKTISKAKGQPREPQVYTLPPSWDEPWGEDVSLTCLVKGFYPSDIVVEWESNGQPENNYKTTPPVLDSDGSFFLYSKLTVPFERWMWPDEFSCSVMHEALHNHYTQKSLSLSPG

EC50 of mIL-2 release, DO11.10 T cell activation assay (human LAG-3) [6]: 1.3 nM
B10: anti-human LAG-3 Fcab FS18-7-36 with truncated hinge and LALA mutation (designed binder)
chain: TCPPCPAPEAAGGPSVFLFPPKPKDTLMISRTPEVTCVVVDVSHEDPEVKFNWYVDGVEVHNAKTKPREEQYNSTYRVVSVLTVLHQDWLNGKEYKCKVSNKALPAPIEKTISKAKGQPREPQVYTLPPSWDEPWGEDVSLTCLVKGFYPSDIAVEWESNGQPENNYKTTPPVLDSDGSYFLYSKLTVPYDRWVWPDEFSCSVMHEALHNHYTQKSLSLSPG

EC50 of mIL-2 release, DO11.10 T cell activation assay (mouse LAG-3) [7]: 1.8 nM
B11: surrogate anti-mouse LAG-3 Fcab FS18-7-108-35 with truncated hinge, comprising LALA mutation (designed binder)
chain: TCPPCPAPEAAGGPSVFLFPPKPKDTLMISRTPEVTCVVVDVSHEDPEVKFNWYVDGVEVHNAKTKPREEQYNSTYRVVSVLTVLHQDWLNGKEYKCKVSNKALPAPIEKTISKAKGQPREPQVYTLPPSWDEPWGEDVSLTCLVKGFYPSDISVEWESNGQPENNYKTTPPVLDSDGSFFLYSKLTVPFERWMWPDEFSCSVMHEALHNHYTQKSLSLSPG

EC50 of mIL-2 release, DO11.10 T cell activation assay (human LAG-3) [6]: 1.1 nM
B12: anti-human LAG-3 Fcab FS18-7-65 with truncated hinge and LALA mutation (designed binder)
chain: TCPPCPAPEAAGGPSVFLFPPKPKDTLMISRTPEVTCVVVDVSHEDPEVKFNWYVDGVEVHNAKTKPREEQYNSTYRVVSVLTVLHQDWLNGKEYKCKVSNKALPAPIEKTISKAKGQPREPQVYTLPPSWDEPWGEDVSLTCLVKGFYPSDIAVEWESNGYAEYNYKTTPPVLDSDGSFFLYSKLTVPYDRWVWPDEFSCSVMHEALHNHYTQKSLSLSPG
